# Measured values as given in the supplement of paper PMC9112550, “Optimization of the antimicrobial peptide Bac7 by deep mutational scanning” (BMC Biology, 2022).
# Tested on: Escherichia coli TOP10
# Assay: shrunken log2 fold change of peptide-encoding DNA abundance (4.5 h post-induction vs induction); higher = less antimicrobial activity (less host growth inhibition)
# Details: time post-induction: 4.5 h; library: site-saturation at positions 5, 18, 19, 20
# 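Also: peptides expressed intracellularly from a pBAD plasmid library in pooled LB shake-flask culture, induced with 0.3% L-arabinose, DNA abundance read by NGS, three biological replicates, DESeq2 with apeglm shrinkage.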
row,Sequence,shrunken log2 fold change
1,RRIRRRPPRLPRPRPRPYTHPRP,-0.505
2,RRIRVRPPRLPRPRPRPEHYPRP,0.0358
3,RRIRFRPPRLPRPRPRPTFMPRP,-0.444
4,RRIRERPPRLPRPRPRPNYKPRP,-0.722
5,RRIRGRPPRLPRPRPRPYFEPRP,-0.123
6,RRIRGRPPRLPRPRPRPPQCPRP,0.713
7,RRIRKRPPRLPRPRPRPFFEPRP,0.428
8,RRIRERPPRLPRPRPRPTNGPRP,-0.163
9,RRIRDRPPRLPRPRPRPNYSPRP,-0.792
10,RRIRARPPRLPRPRPRPFSQPRP,-0.0436
11,RRIRYRPPRLPRPRPRPNYKPRP,-1.01
12,RRIRDRPPRLPRPRPRPCGDPRP,0.0915
13,RRIRVRPPRLPRPRPRPNANPRP,0.063
14,RRIRDRPPRLPRPRPRPRIKPRP,-0.454
15,RRIRWRPPRLPRPRPRPRCCPRP,0.448
16,RRIRQRPPRLPRPRPRPPYPPRP,-0.0407
17,RRIRIRPPRLPRPRPRPACIPRP,-0.69
18,RRIRHRPPRLPRPRPRPIRDPRP,0.0386
19,RRIRKRPPRLPRPRPRPMNSPRP,-0.0163
20,RRIRMRPPRLPRPRPRPQECPRP,0.313
21,RRIRKRPPRLPRPRPRPQNQPRP,0.0634
22,RRIRRRPPRLPRPRPRPEKVPRP,0.448
23,RRIRYRPPRLPRPRPRPEPKPRP,0.0661
24,RRIRGRPPRLPRPRPRPFGQPRP,0.368
25,RRIRWRPPRLPRPRPRPVREPRP,0.0727

row,Sequence,shrunken log2 fold change
1,RRIRWRPPRLPRPRPRPWRDPRP,0.433
2,RRIRVRPPRLPRPRPRPELYPRP,0.0948
3,RRIRKRPPRLPRPRPRPTHFPRP,-0.105
4,RRIRMRPPRLPRPRPRPHRVPRP,-0.0492
5,RRIRHRPPRLPRPRPRPKCPPRP,-0.0954
6,RRIRVRPPRLPRPRPRPFDDPRP,-0.175
7,RRIRYRPPRLPRPRPRPRVPPRP,-0.0432
8,RRIRDRPPRLPRPRPRPYNNPRP,-0.489
9,RRIRYRPPRLPRPRPRPSQDPRP,-0.561
10,RRIRMRPPRLPRPRPRPALDPRP,0.94
11,RRIRVRPPRLPRPRPRPPHYPRP,0.1
12,RRIRNRPPRLPRPRPRPIRIPRP,0.0229
13,RRIRRRPPRLPRPRPRPTIWPRP,0.251
14,RRIRPRPPRLPRPRPRPQESPRP,-0.0337
15,RRIRGRPPRLPRPRPRPIRMPRP,0.0246
16,RRIRFRPPRLPRPRPRPMDRPRP,0.0616
17,RRIRERPPRLPRPRPRPHFAPRP,-0.0634
18,RRIRARPPRLPRPRPRPEAYPRP,0.114
19,RRIRSRPPRLPRPRPRPECSPRP,0.201
20,RRIRYRPPRLPRPRPRPMSIPRP,-0.563
21,RRIRVRPPRLPRPRPRPPVHPRP,-0.0509
22,RRIRNRPPRLPRPRPRPALVPRP,0.461
23,RRIRNRPPRLPRPRPRPVFPPRP,-0.000239
24,RRIRPRPPRLPRPRPRPVRMPRP,0.213
25,RRIRFRPPRLPRPRPRPQMFPRP,-0.103

row,Sequence,shrunken log2 fold change
1,RRIRLRPPRLPRPRPRPIMLPRP,-1.12
2,RRIRDRPPRLPRPRPRPWFMPRP,0.0254
3,RRIRMRPPRLPRPRPRPSLSPRP,0.22
4,RRIRVRPPRLPRPRPRPTCIPRP,-0.372
5,RRIRDRPPRLPRPRPRPMLAPRP,0.607
6,RRIRGRPPRLPRPRPRPAYVPRP,-0.0723
7,RRIRIRPPRLPRPRPRPTTFPRP,-0.688
8,RRIRMRPPRLPRPRPRPAPFPRP,0.575
9,RRIRQRPPRLPRPRPRPECHPRP,0.268
10,RRIRPRPPRLPRPRPRPQQLPRP,0.0282
11,RRIRARPPRLPRPRPRPRVDPRP,0.419
12,RRIRQRPPRLPRPRPRPHDIPRP,0.0769
13,RRIRPRPPRLPRPRPRPQHEPRP,-0.146
14,RRIRKRPPRLPRPRPRPVVLPRP,-0.0253
15,RRIRARPPRLPRPRPRPPCFPRP,0.482
16,RRIRERPPRLPRPRPRPPENPRP,0.222
17,RRIRQRPPRLPRPRPRPFYIPRP,0.0172
18,RRIRWRPPRLPRPRPRPEMRPRP,2.09
19,RRIRIRPPRLPRPRPRPCVWPRP,-0.242
20,RRIRSRPPRLPRPRPRPMWWPRP,0.551
21,RRIRARPPRLPRPRPRPCEQPRP,0.233
22,RRIRMRPPRLPRPRPRPTKQPRP,0.296
23,RRIRFRPPRLPRPRPRPFAYPRP,0.0263
24,RRIRDRPPRLPRPRPRPPQPPRP,0.387
25,RRIRTRPPRLPRPRPRPKPQPRP,0.203
